Molecular target: T1, CYS3 transcriptional activator (Neurospora crassa, UniProt P22697 1-236)
T1 sequence: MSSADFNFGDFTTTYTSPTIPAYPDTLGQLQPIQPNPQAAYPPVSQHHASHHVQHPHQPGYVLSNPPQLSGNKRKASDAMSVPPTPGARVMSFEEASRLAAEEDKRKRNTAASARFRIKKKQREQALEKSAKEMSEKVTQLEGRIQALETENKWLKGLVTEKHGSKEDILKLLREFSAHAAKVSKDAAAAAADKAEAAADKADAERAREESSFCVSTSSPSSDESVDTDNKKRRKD
Experiment: EMSA; Binding buffer not given (refs 14,20); 4% PAGE in 50 mM Tris-80 mM glycine-2 mM EDTA pH 8.5, 20 mA, 4 C
Details: protein: recombinant; chain copies: 2; label: 32P (T4 PNK); blunt

B1: cys-16+ Site 3 (dsDNA)
DNA 1: AACCTGAATTGCGCCATAGCCAAA
DNA 2: TTTGGCTATGGCGCAATTCAGGTT
- binding result: binds

From PMC3496659, “Analysis of the sulfur-regulated control of the cystathionine γ-lyase gene of Neurospora crassa”
